Data taken from article PMC7049166 (Proceedings of the National Academy of Sciences of the …, 2020).
Where “and” joins values, the source holds several entries; their conditions need not be identical. Equal values may be shown once.

Key:
[1] = biological target: the molecule itself; assay: cell-based or functional assay
crystal structure = biological target: the molecule itself; assay: crystal structure
SEC-MALS = biological target: the molecule itself; assay: SEC-MALS
cross-linking = biological target: the molecule itself; assay: cross-linking
AUC = biological target: the molecule itself; assay: AUC

B1: S. cerevisiae short Mgm1 (s-Mgm1), truncated version, residues 184-881 (domain or fragment, UniProt P32266 184-881, looked up)
chain: MLNLTKQMIEIRTILNKVDSSSAHLTLPSIVVIGSQSSGKSSVLESIVGREFLPKGSNMVTRRPIELTLVNTPNSNNVTADFPSMRLYNIKDFKEVKRMLMELNMAVPTSEAVSEEPIQLTIKSSRVPDLSLVDLPGYIQVEAADQPIELKTKIRDLCEKYLTAPNIILAISAADVDLANSSALKASKAADPKGLRTIGVITKLDLVDPEKARSILNNKKYPLSMGYVGVITKTPSSINRKHLGLFGEAPSSSLSGIFSKGQHGQSSGEENTNGLKQIVSHQFEKAYFKENKKYFTNCQVSTKKLREKLIKILEISMSNALEPTSTLIQQELDDTSYLFKVEFNDRHLTPKSYLLNNIDVLKLGIKEFQEKFHRNELKSILRAELDQKVLDVLATRYWKDDNLQDLSSSKLESDTDMLYWHKKLELASSGLTKMGIGRLSTMLTTNAILKELDNILESTQLKNHELIKDLVSNTAINVLNSKYYSTADQVENCIKPFKYEIDLEERDWSLARQHSINLIKEELRQCNSRYQAIKNAVGSKKLANVMGYLENESNLQKETLGMSKLLLERGSEAIFLDKRCKVLSFRLKMLKNKCHSTIEKDRCPEVFLSAVSDKLTSTAVLFLNVELLSDFFYNFPIELDRRLTLLGDEQVEMFAKEDPKISRHIELQKRKELLELALEKIDSILVFKKSYKGVSKNL
[1]
  stimulation of s-Mgm1 GTPase activity by liposomes with 10% or 20% cardiolipin: 8 fold
Crystal structure
  stoichiometry N: 3
SEC-MALS
  stoichiometry N: 2

B2: HA-tagged s-Mgm1 S397C/E751C mutant (with 4CS mutations C341S, C676S, C709S, C763S) (domain or fragment, S. cerevisiae, UniProt P32266 184-881, looked up)
chain: MLNLTKQMIEIRTILNKVDSSSAHLTLPSIVVIGSQSSGKSSVLESIVGREFLPKGSNMVTRRPIELTLVNTPNSNNVTADFPSMRLYNIKDFKEVKRMLMELNMAVPTSEAVSEEPIQLTIKSSRVPDLSLVDLPGYIQVEAADQPIELKTKIRDLSEKYLTAPNIILAISAADVDLANSSALKASKAADPKGLRTIGVITKLDLVDPEKARCILNNKKYPLSMGYVGVITKTPSSINRKHLGLFGEAPSSSLSGIFSKGQHGQSSGEENTNGLKQIVSHQFEKAYFKENKKYFTNCQVSTKKLREKLIKILEISMSNALEPTSTLIQQELDDTSYLFKVEFNDRHLTPKSYLLNNIDVLKLGIKEFQEKFHRNELKSILRAELDQKVLDVLATRYWKDDNLQDLSSSKLESDTDMLYWHKKLELASSGLTKMGIGRLSTMLTTNAILKELDNILESTQLKNHELIKDLVSNTAINVLNSKYYSTADQVENSIKPFKYEIDLEERDWSLARQHSINLIKEELRQSNSRYQAIKNAVGSKKLANVMGYLENESNLQKETLGMSKLLLCRGSEAIFLDKRSKVLSFRLKMLKNKCHSTIEKDRCPEVFLSAVSDKLTSTAVLFLNVELLSDFFYNFPIELDRRLTLLGDEQVEMFAKEDPKISRHIELQKRKELLELALEKIDSILVFKKSYKGVSKNL
cross-linking
  stoichiometry N: 2 and 3

B3: s-Mgm1 R712A/E751A mutant (domain or fragment, S. cerevisiae, UniProt P32266 184-881, looked up)
chain: MLNLTKQMIEIRTILNKVDSSSAHLTLPSIVVIGSQSSGKSSVLESIVGREFLPKGSNMVTRRPIELTLVNTPNSNNVTADFPSMRLYNIKDFKEVKRMLMELNMAVPTSEAVSEEPIQLTIKSSRVPDLSLVDLPGYIQVEAADQPIELKTKIRDLCEKYLTAPNIILAISAADVDLANSSALKASKAADPKGLRTIGVITKLDLVDPEKARSILNNKKYPLSMGYVGVITKTPSSINRKHLGLFGEAPSSSLSGIFSKGQHGQSSGEENTNGLKQIVSHQFEKAYFKENKKYFTNCQVSTKKLREKLIKILEISMSNALEPTSTLIQQELDDTSYLFKVEFNDRHLTPKSYLLNNIDVLKLGIKEFQEKFHRNELKSILRAELDQKVLDVLATRYWKDDNLQDLSSSKLESDTDMLYWHKKLELASSGLTKMGIGRLSTMLTTNAILKELDNILESTQLKNHELIKDLVSNTAINVLNSKYYSTADQVENCIKPFKYEIDLEERDWSLARQHSINLIKEELRQCNSAYQAIKNAVGSKKLANVMGYLENESNLQKETLGMSKLLLARGSEAIFLDKRCKVLSFRLKMLKNKCHSTIEKDRCPEVFLSAVSDKLTSTAVLFLNVELLSDFFYNFPIELDRRLTLLGDEQVEMFAKEDPKISRHIELQKRKELLELALEKIDSILVFKKSYKGVSKNL
AUC
  binding result: binds
